Here are results for one molecule from patent US20080044436A1, “Method for Screening and Compositions for Treating Cancers” (priority 2004, published 2008).

For data set [1], the system named is cyclin A/CDK2. In words: In vitro kinase assay of immunoprecipitated cyclin A/CDK2 (histone H1 substrate). It is filed as biochemical, human. The note with it: TReP-132 induced for 48 hours in HTO-GFP/TReP-132 cells. The source says: FIG. 9A: Kinase activities of each immunoprecipitated cyclin or CDK were quantified using pRb as substrate to measure cyclin D1/CDK6 activity, or histone H1 to measure cyclin A/CDK2 activity. The levels of phosphorylation of histone H1 or pRb in induced HTO cells (HeLa Tet Off) are expressed in relation to the levels in non-induced HTO cells (corresponding to level 1.0).
Cells were washed twice with cold PBS (Phosphate Buffered Saline), then harvested either in cold RIPA buffer (1×PBS, 1% Nonidet P-40, 0.5% sodium deoxycholate, 0.1% SDS, phosphatase and protease inhibitors) for co-immunoprecipitation analysis, or in lysis buffer (50 mM Tris, pH 8.0, 0.1% IGEPAL (Sigma)) for kinase assays. […] The blots were then visualized with ECL reagent and quantified with SCANWISE and Perfect-IMAGE V-5.3 software (CLARA VISION, France).
The kinase activities on histone H1 or Rb protein in the immunoprecipitates were measured as follows: the immunoprecipitates were first washed once with 1 ml of assay buffer (50 mM Tris-HCl, pH 7.4, 10 mM MgCl2, 1 mM dithiothreitol (DTT)), then resuspended in 20 μl of assay buffer containing 1 mg/ml casein (Sigma) and 1 μg of histone H1 or Rb protein (769) (sc-4112) as substrate. […]
The reaction was stopped by addition of 15 μl of electrophoresis buffer (3×). […] Phosphorylated Rb and histones were quantified by densitometry.

Data set [2] relates to HeLa cells. In words: Cell cycle analysis by flow cytometry after TReP-132 induction. The class given is cell-based, human. Conditions: HTO-GFP/TReP-132 cells, from 48 hours after doxycycline removal. From the text:
HeLa Tet-off cells expressing the tTA transactivator under the control of tetracycline or doxycycline (Dox) (Clontech Laboratories, Palo Alto, Calif.) were stably transfected with the pBI-EGFP-TReP-132 vector or the pBI-EGFP control vector. In order to select stably transfected cells, the pcDNA6 plasmid (Invitrogen, Ontario, CA) containing the blasticidin resistance gene was cotransfected at a ratio of 1:50. For these transfections, the cells were first seeded in 6-well plates at an initial density of 1×10^5 cells per well, incubated for 24 hours, then transfected with ExGen 500 (MBI Fermentas, Flamborough, Ontario, CA) at a ratio of 5 μl of ExGen 500 for a total of 1 μg of plasmid such as described hereinabove in the section “Colony formation assays”. 48 hours post-transfection, cells were selected for 2 weeks with blasticidin (Sigma-Aldrich CA Ltd.). Clearly visible colonies were then were picked and subcloned on 12-well plates to enable growth. […]
To evaluate the percentage of cells in the G0/G1, S, or G2/M phase, flow cytometry profiles were determined on propidium iodide stained DNA from said cells. […] The percentage of cells in the G1, S, and G2/M phase was quantified with Multicycle AV software (Phoenix Flow System, San Diego, Calif.) (28).
(In flow cytometry, cells or beads pass a laser one at a time.)

Data set [3] has as its system p21^CIP1/WAF1 gene. Description: RNase protection assay of CDKI transcription in HeLa cells, p21. It is filed as cell-based, human. The note with it: HeLa Tet-off cells, doxycycline removed. As for the experimental part:
All radiolabelled probes specific for the p130, Rb, p107, p53, p57, p27, p21, p19, p18, p14/p15, L32, and GAPDH genes were labelled with [α-^32P]UTP-ribonucleotide (PerkinElmer Life Sciences, Woodbridge, Ontario, CA) in the conditions specified in the “hCC-2 Muti-Probe Template Set” kit (Pharmingen, Mississauga, Ontario, CA). Ribonuclease protection experiments were carried out with the Ribonuclease III Protection kit (Ambion, Austin, Tex.). Ten micrograms of HeLa cell RNA were hybridized with the radiolabelled probe mixture at 56° C. and then digested for 45 min at 30° C. in RNase A/RNase T1 solution diluted 1:1000 in digestion buffer. The samples were separated on a polyacrylamide-6% urea gel.

B1: TReP-132: Transcriptional Regulating Protein of 132 kDa, polypeptide comprising SEQ ID NO: 2; here expressed in cells from vectors (protein)
chain: MGDQQLYKTNHVAHGSENLFYQQPPLGVHSGLNHNYGNAVTGGGMDAPQASPISPHFPQDTRDGLGLPVGSKNLGQMDTSRQGGWGSHAGPGNHVQLRGNLANSNMMWGAPAQAEPTDGYQYTYSQASEIRTQKLTSGVLHKLDSFTQVFANQNLRIQVNNMAQVLHTQSAVMDGAPDSALRQLLSQKPMEPPAPAIPSRYQQVPQQPHPGFTGGLSKPALQVGQHPTQGHLYYDYQQPLAQVPVQGGQPLQAPQMLSQHMQQMQQHQYYPPQQQQQAGQQRISMQEIQTQPQQIRPSQPQPPPQQQQPQQLQLQQRQGSMQIPQYYQPQPMMQHLQEQQQQQMHLQPPSYHRDPHQYTPEQAHTVQLIPLGSMSQYYYQEPQQPYSHPLYQQSHLSQHQQREDSQLKTYSSDRQAQAMLSSHGDLGPPDTGMGDPASSDLTRVSSTLPHRPLLSPSGIHLNNMGPQHQQLSPSAMWPQMHLPDGRAQPGSPESSGQPKGAFGEQFDAKNKLTCSICLKEFKNLPALNGHMRSHGGMRASPNLKQEEGEKVLPPQPQPPLPPPPPPPPPPQLPPEAESLTPMVMPVSVPVKLLPPKPSSQGFTNSTVAAPSARDKPASSMSDDEMPVLEIPRKHQPSVPKAEEPLKTVQEKKKFRHRPEPLFIPPPPSYNPNPAASYSGATLYQSQLRSPRVLGDHLLLDPTHELPPYTPPPMLSPVRQGSGLFSNVLISGHGPGAHPQLPLTPLTPTPRVLLCRSNSIDGSNVTVTPGPGEQTVDVEPRINIGLRFQAEIPELQDISALAQDTHKATLVWKPWPELENHDLQQRVENLLNLCCSSALPGGGTNSEFALHSLFEAKGDVMVALEMLLLRKPVRLKCHPLANYHYAGSDKWTSLERKLFNKALATYSKDFIFVQKMVKSKTVAQCVEYYYTWKKIMRLGRKHRTRLAEIIDDCVTSEEEEELEEEEEEDPEEDRKSTKEEESEVPKSPEPPPVPVLAPTEGPPLQALGQPSGSFICEMPNCGAVFSSRQALNGHARIHGGTNQVTKARGAIPSGKQKPGGTQSGYCSVKSSPSHSTTSGETDPTTIFPCKECGKVFFKIKSRNAHMKTHRQQEEQQRQKAQKAAFAAEMAATIERTTGPVGAPGLLPLDQLSLIKPIKDVDILDDDVVQQLGGVMEEAEVVDTDLLLDDQDSVLLQGDAEL
Turning to B1, the “in vitro kinase activity of cyclin A/CDK2” value in data set [1] is reported as “reduced”. In addition, the cell cycle effect entry in data set [2] is on record as “arrested cells in the G1 phase”. The p21 gene transcription result in data set [3] is “induction”.
